Reference: patent US20050154189A1 (MAXYGEN, published 2005)
Positions count from the first letter of the chain named.

B1: Round 2 CD28A6-1 (ligand)
chain: ITPKSVTKRVKETVMLSCDYNTSTEELTSLRIYWQKDSKMVLAILPGKVQVWPEYKNRTITDMNDNPRIVILALRLSDSGTYTCVIQKPVLKGAYKLEHLASVRLMIRADFPVPTINDLGNPSPNIRRLICSTSGGFPRPHLYWLENGEELNATNTTVSQDPETKLYMISSELDFNVTNNHSIVCLIKYGELSVSQIFPWSKPKQEPPIDQLPFRVIIPVSGALVLTAIVLYCLACRHVARWKRTRRNEETVGTERLSPIYLGSAQSSG
B2: Round 2 CD28H11-3 (ligand)
chain: B1 chain with V158L, R215W, I229A
B3: Round 2 CD28A8-4 (ligand)
chain: B1 chain with A101T, E163G, K165E, R215W, I229V
B4: Round 2 CD28BP-2 (ligand)
chain: B1 chain with N21S, V158L, R215W, I229V, C233R, L234P
B5: Round 2 CD28C6-1 (ligand)
chain: B1 chain with N21S, E163G, K165E, R215W, I229V, V239G
B6: Round 2 CD28G2-8 (ligand)
chain: B1 chain with T115S, E163G, K165E, R215W, I229V
B7: Round 2 CD28C8-6 (ligand)
chain: B1 chain with E163G, K165E, D174G, R215W, I229V
B8: Round 2 CD28BP-4 (ligand)
chain: B1 chain with Y143C, E163G, K165E, R215W, I229V
B9: Round 2 CD28BP-13 (ligand)
chain: ITPKSVTKRVKETVMLSCDYSTSTEELTSLRIYWQKDSKMVLAILPGKVQVWPEYKNRTITDMNDNPRIVILALRLSDSGTYTCVIQKPVLKGAYKLEHLASVRLMIRADFPVPTINDLGNPSPNIRRLICSTSGGFPEPRLAWMEDGEELNAVNTTVDQDLDTELYSVSSELDFNVTNNHSIVCLIKYGELSVSQIFPWSKPKQEPPIDQLPFWVIIPVSGALVLTAVVLYCLACRHVARWKRTRRNEETVGTERLSPIYLGSAQSSG
B10: Round 2 CD28F3-6 (ligand)
chain: B1 chain with N21S, V90D, A101T, V158L, R215W, I229V
B11: Round 2 CD28D8-9 (ligand)
chain: B1 chain with N21S, A101T, E163G, K165E, R215W, I229V
B12: Round 2 CD28E9-6 (ligand)
chain: B1 chain with S79K, V90D, E163G, K165E, R215W, I229V
B13: Round 2 CD28E2-4 (ligand)
chain: B1 chain with N21S, S79K, E163G, K165E, R215W, I229V
B14: Round 2 CD28A6-9 (ligand)
chain: B1 chain with E163G, K165E, R215L, I229V
B15: Round 2 CD28B2-8 (ligand)
chain: B1 chain with S79K, E163G, K165E, R215W, I229V
B16: Round 2 CD28E10-6 (ligand)
chain: B1 chain with V158L, K165E, R215W, I229V
B17: Round 2 CD28BP-16 (ligand)
chain: B1 chain with A101T, E163G, K165E, R215W, T227A, I229V
B18: Round 2 CD28F7-2 (ligand)
chain: B9 chain
B19: Round 2 CD28D2-9 (ligand)
chain: B1 chain with A101T, V158L, K165E, R215W, I229V
B20: Round 2 CD28E5-2 (ligand)
chain: B1 chain with V90D, V158L, H181R, R215W, I229V
B21: Round 2 CD28C11-5 (ligand)
chain: B1 chain with A101T, E163G, K165E, V184A, R215W, I229V
B22: Round 2 CD28BP-5 (ligand)
chain: B1 chain with N21S, S79K, I86V, A101T, E163G, K165E, R215W, I229V
B23: Round 2 CD28F8-4 (ligand)
chain: B1 chain with N21S, V158L, R215W, I229V
B24: Round 1 CD28BP-71 (ligand)
chain: ITPKSVTKRVKETVMLSCDYNTSTEELTSLRIYWQKDSKMVLAILPGKVQVWPEYKNRTITDMNDNPRIVILALRLSDSGTYTCVIQKPVLKGAYKLEHLASVRLMIRADFPVPTINDLGNPSPNIRRLICSTSGGFPRPHLYWLENGEELNATNTTLSQDPETKLYMISSELDFNMTSNHSFLCLVKYGDLTVSQTFYWQESKPTPSANQHLTWTIIIPVSAFGISVIIAVILTCLTCRNAAIRRQRRENEVEMQSCSQSP
notes: also called R1clone71; Clone 71
B25: Round 2 CD28E2-5* (ligand)
chain: B24 chain with I1T, L76P
B26: Round 2 CD28E8-6 (ligand)
chain: B24 chain with A101T, L158V, M177T
B27: Round 2 CD28F3-1 (ligand)
chain: B24 chain with V90D, A101T, E149K
B28: Round 2 CD28B6-3 (ligand)
chain: B24 chain with V90D, A101T, E254K
B29: Round 2 CD28B4-3 (ligand)
chain: B24 chain with A101T
B30: Round 2 CD28D5-6 (ligand)
chain: B24 chain with N21S, A101T, T197S

Target: T1, Soluble CD28-Ig (human, UniProt P10747 19-152, biotin-conjugated (NHS-biotin) in the labelled-ligand FACS assays)
T1 construct: extracellular domain; Bought from R&D Systems; also called sCD28-Ig; CD28-Ig Fc; not shown: Fc portion of human IgG1
Assay: two-colour FACS profile on transfected cells; score of preference for CD28-Ig over CTLA-4-Ig vs WT hB7-1

Binder | Binding Score
B1 | 1
B2 | 1
B3 | 1
B4 | 2
B5 | 1
B6 | 1
B7 | 2
B8 | 2
B9 | 2
B10 | 0
B11 | 1
B12 | 0
B13 | 1
B14 | 1
B15 | 1
B16 | 1
B17 | 2
B18 | 2
B19 | 1
B20 | 0
B21 | 2
B22 | 2
B23 | 1
B24 | 1
B25 | 0
B26 | 0
B27 | 0
B28 | 1
B29 | 1
B30 | 0
